Tests used:
[1] = biological target: recombinant ED-B domain of fibronectin (UniProt P02751); assay: 125I-labelled antibody on ED-B Sepharose column, bound against unbound radioactivity, before injection
[2] = biological target: recombinant ED-B domain of fibronectin (UniProt P02751); assay: 125I-labelled antibody in mouse plasma 6 h after i.v. injection, ED-B Sepharose column
[3] = biological target: recombinant ED-B domain of fibronectin (UniProt P02751); assay: 125I-labelled antibody in mouse plasma 3 h after i.v. injection, ED-B Sepharose column
[4] = biological target: recombinant ED-B domain of fibronectin (UniProt P02751); assay: 125I-labelled antibody in mouse plasma 24 h after i.v. injection, ED-B Sepharose column
[5] = biological target: recombinant ED-B domain of fibronectin (UniProt P02751); assay: 125I-labelled antibody in mouse plasma 144 h after i.v. injection, ED-B Sepharose column
[6] = biological target: recombinant ED-B domain of fibronectin (UniProt P02751); assay: 125I-labelled antibody in mouse plasma 48 h after i.v. injection, ED-B Sepharose column
[7] = biological target: recombinant ED-B domain of fibronectin (UniProt P02751); assay: 125I-labelled antibody in mouse plasma 72 h after i.v. injection, ED-B Sepharose column

scFv(L19), sequence (VH): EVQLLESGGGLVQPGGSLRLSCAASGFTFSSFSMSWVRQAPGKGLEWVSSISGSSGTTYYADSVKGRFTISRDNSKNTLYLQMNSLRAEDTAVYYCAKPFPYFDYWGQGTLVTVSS
scFv(L19), sequence (VL): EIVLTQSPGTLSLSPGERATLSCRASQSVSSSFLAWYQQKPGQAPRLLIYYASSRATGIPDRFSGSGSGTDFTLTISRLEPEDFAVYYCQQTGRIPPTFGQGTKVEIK
UniProt P02751, sequence (P02751 1266-1356 limits assumed): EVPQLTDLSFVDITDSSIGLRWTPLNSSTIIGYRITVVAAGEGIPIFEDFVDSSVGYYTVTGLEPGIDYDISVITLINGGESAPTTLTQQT

scFv(L19)
immunoreactivity (percentage bound to ED-B Sepharose) [1]: > 90% | Immunoreactivity (I), % of the value before i.v. injection [2]: 32% | Immunoreactivity (I), % of the value before i.v. injection [3]: 36% | Immunoreactivity (I), % of the value before i.v. injection [4]: 27% | Immunoreactivity (I), % of the value before i.v. injection [5]: 4% | Immunoreactivity (I), % of the value before i.v. injection [6]: 14% | Immunoreactivity (I), % of the value before i.v. injection [7]: 9%

L19 small immunoprotein (L19-SIP) (from UniProt P01854 319-426)
immunoreactivity (percentage bound to ED-B Sepharose) [1]: > 90%

From patent US20060057146A1
